This note sets out measurements from patent publication US20140228546A1 (Ablynx, published 2014).

The target in experiment [1] is T1, cynomolgus serum albumin (cynomolgus, UniProt A2V9Z4 25-608).
T1 construct: also called Cyno SA
Kind of experiment: method not stated (Table 6 comparison).

Experiment [2] addresses T2, human serum albumin (human, UniProt P02768 25-609).
T2 construct: also called Human SA; HSA
Kind of experiment: method not stated (Table 6 comparison).

For experiment [3], the target named is T1, cynomolgus serum albumin. Kind of experiment: SPR, Biacore T100, albumin immobilized on CM5, 25 C, 1:1 model. For orientation: SPR reads the build-up and loss of mass on a sensor chip optically.
Description: (§1) HBS-EP+ buffer (0.01M HEPES buffer containing 0.15M NaCl, 3 mM EDTA and 0.05% Surfactant p20, pH7.4) was used as the running buffer and experiments were performed at 25° C. Serum albumin was chemically coupled on a Series S sensorchip chip CM5 with carboxymethylated dextran surface by a manual immobilization run at a flow rate of 5 μl/min. […] After immobilization, surfaces were deactivated with a 7 min injection of 1M ethanolamine pH8.5. A blank reference surface (flowcell 1) was activated and deactivated as described above. […] Between different samples, the surfaces were regenerated with regeneration buffer 10 mM glycine-HCl pH1.5, 100 s at 45 μl/min. Data were double referenced by subtraction of the curves on the reference channel and of a blank running buffer injection curve. Processed curves were evaluated by fitting a 1:1 binding model onto the binding curves in the Biacore T100 Evaluation software.
In experiment [4] the target is T2, human serum albumin. Described as above.
Description: as §1
Experiment [5] has as its target T3, c-MET receptor on A549 cells (UniProt P08581 25-1390, limits assumed). Kind of experiment: cell-based or functional assay.
The target of experiment [6] is T4, c-MET/Fc (UniProt P08581 25-932).
T4 construct: also called c-MET receptor; not shown: Fc part, captured by anti-human Fc acceptor beads
T4 sequence (P08581 25-932 limits assumed): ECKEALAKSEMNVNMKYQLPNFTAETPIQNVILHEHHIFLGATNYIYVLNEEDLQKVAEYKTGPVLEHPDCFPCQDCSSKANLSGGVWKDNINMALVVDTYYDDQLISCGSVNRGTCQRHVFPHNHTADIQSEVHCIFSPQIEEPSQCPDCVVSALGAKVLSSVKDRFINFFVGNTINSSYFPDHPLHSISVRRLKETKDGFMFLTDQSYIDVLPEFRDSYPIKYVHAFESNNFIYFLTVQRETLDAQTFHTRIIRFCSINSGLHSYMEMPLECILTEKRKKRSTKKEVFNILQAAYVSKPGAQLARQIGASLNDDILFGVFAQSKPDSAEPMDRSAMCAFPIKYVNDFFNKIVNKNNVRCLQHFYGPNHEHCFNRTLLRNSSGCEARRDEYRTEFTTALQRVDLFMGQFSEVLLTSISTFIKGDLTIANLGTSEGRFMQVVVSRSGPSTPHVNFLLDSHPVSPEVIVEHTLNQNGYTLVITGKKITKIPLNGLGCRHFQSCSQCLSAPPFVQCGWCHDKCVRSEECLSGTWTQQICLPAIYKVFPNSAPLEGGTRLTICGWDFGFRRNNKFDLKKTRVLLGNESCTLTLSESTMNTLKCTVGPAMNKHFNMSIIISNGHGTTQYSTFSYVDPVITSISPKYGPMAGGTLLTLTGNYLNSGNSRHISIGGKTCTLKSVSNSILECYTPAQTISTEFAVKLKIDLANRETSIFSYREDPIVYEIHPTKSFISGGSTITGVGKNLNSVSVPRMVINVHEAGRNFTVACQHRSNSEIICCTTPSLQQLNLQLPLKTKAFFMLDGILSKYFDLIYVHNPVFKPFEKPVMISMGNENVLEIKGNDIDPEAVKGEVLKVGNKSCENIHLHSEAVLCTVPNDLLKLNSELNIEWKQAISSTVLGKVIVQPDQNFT
Kind of experiment: HGF/c-MET competition AlphaScreen; competitor: 100 pM biotinylated hHGF. A general note: In Alpha technology, singlet oxygen from a donor bead excites a nearby acceptor bead.

In experiment [7] the target is T3, c-MET receptor on A549 cells. Kind of experiment: cell-based or functional assay. This is another data set of the same source.
Experiment [8] concerns the target T4, c-MET/Fc. Kind of experiment: HGF/c-MET competition AlphaScreen; competitor: 100 pM biotinylated hHGF. This is another data set of the same source.
Description: To this mixture the anti-human Fc conjugated acceptor beads and c-MET/Fc (100 μM final concentration) were added and incubated for 2 hours at RT. Next, streptavidin donor beads were added and the mixture was incubated for 1 additional hour. Fluorescence was measured by reading plates on the EnVision Multilabel Plate Reader using an excitation wavelength of 680 nm and an emission wavelength of 520 nm.
Experiment [9] concerns the target T5, mouse serum albumin (mouse, UniProt P07724 25-608).
T5 construct: also called Murine SA
Kind of experiment: SPR, Biacore T100, albumin immobilized on CM5, 25 C, 1:1 model.
Description: as §1

T3 sequence (P08581 25-1390 limits assumed): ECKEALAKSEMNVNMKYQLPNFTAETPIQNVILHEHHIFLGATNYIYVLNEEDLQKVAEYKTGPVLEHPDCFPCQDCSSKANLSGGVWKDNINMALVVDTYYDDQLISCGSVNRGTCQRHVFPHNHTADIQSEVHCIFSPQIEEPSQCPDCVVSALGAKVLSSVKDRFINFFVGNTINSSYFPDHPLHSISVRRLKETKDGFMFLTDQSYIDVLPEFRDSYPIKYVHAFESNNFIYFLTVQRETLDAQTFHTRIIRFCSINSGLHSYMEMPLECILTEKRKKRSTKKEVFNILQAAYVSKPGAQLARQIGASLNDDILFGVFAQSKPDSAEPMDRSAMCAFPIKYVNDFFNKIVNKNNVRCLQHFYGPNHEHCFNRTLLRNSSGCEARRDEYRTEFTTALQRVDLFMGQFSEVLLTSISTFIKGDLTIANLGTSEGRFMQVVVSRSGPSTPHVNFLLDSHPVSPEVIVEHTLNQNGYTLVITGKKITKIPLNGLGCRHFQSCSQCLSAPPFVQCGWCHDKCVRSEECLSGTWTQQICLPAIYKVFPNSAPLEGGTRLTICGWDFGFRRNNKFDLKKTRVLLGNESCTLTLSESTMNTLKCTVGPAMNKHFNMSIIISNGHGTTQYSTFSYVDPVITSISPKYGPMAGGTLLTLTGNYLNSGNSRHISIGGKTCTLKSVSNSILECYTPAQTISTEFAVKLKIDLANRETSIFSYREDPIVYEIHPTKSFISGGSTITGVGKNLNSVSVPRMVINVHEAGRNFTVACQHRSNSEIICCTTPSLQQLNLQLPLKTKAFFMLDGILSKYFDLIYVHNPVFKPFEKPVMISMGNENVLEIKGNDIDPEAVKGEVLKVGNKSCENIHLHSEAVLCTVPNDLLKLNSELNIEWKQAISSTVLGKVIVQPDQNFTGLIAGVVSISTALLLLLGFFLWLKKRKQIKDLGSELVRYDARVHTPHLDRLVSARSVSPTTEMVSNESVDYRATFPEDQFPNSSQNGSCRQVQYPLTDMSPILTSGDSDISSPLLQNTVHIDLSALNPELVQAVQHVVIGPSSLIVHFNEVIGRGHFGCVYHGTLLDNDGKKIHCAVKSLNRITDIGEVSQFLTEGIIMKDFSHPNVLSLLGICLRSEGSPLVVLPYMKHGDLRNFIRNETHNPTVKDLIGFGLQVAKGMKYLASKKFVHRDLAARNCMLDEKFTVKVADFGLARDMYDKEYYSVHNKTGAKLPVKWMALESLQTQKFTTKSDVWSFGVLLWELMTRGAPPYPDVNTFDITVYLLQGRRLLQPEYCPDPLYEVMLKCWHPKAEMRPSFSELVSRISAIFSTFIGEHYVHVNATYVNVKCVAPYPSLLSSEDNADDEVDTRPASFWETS
T1 sequence (A2V9Z4 25-608 limits assumed): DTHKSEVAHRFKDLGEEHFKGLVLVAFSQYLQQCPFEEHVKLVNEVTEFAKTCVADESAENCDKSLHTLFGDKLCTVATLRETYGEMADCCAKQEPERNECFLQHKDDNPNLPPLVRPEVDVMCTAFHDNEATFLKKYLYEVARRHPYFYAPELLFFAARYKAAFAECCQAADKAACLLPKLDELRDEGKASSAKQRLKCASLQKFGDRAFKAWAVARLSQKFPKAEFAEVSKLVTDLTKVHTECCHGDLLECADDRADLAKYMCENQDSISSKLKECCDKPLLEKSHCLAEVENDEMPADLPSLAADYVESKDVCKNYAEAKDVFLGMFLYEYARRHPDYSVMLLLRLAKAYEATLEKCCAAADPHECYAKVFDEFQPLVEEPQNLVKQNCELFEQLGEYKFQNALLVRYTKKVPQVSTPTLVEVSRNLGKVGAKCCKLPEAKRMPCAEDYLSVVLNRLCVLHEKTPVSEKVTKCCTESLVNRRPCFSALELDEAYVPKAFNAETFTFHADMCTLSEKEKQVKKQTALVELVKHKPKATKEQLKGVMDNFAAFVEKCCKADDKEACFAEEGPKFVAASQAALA
T2 sequence (P02768 25-609 limits assumed): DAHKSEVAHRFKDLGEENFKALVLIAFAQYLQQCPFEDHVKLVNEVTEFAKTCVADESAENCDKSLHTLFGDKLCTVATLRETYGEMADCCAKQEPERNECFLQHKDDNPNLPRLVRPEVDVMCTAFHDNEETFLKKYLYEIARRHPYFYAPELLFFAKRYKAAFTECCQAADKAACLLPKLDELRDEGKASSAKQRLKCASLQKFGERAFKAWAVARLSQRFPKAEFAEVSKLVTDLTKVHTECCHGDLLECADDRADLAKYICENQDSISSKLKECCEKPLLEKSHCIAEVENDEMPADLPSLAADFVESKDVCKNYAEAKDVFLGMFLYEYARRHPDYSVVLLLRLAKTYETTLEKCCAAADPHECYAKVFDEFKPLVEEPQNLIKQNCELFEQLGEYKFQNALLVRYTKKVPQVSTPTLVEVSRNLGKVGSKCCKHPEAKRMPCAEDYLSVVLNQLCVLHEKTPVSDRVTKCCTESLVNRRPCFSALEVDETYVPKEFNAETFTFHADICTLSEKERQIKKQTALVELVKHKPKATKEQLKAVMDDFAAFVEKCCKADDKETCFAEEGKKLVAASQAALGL

B1: Alb-23 (VHH)
VHH: EVQLLESGGGLVQPGGSLRLSCAASGFTFRSFGMSWVRQAPGKGPEWVSSISGSGSDTLYADSVKGRFTISRDNSKNTLYLQMNSLRPEDTAVYYCTIGGSLSRSSQGTLVTVSS
notes: Monovalent anti-serum albumin Nanobody, a humanized version of Alb-1
The Kd is the equilibrium constant for the complex coming apart. Higher therefore signals weaker binding. As for B1, the Kd in [1] turned out to be 3 nM; in experiment [2], 2.7 nM; in experiment [3], 2.7 nM; in [4], 2.6 nM.

B2: A007901219 (A00790105-9GS-Alb23) (bispecific antibody)
chain: DVQLVESGGGLVQPGGSLRLSCAASGFILDYYAIGWFRQAPGKEREGVLCIDASDDITYYADSVKGRFTISRDNSKNTVYLQMNSLRPEDTAVYYCATPIGLSSSCLLEYDYDYWGQGTLVTVSSGGGGSGGGSEVQLLESGGGLVQPGGSLRLSCAASGFTFRSFGMSWVRQAPGKGPEWVSSISGSGSDTLYADSVKGRFTISRDNSKNTLYLQMNSLRPEDTAVYYCTIGGSLSRSSQGTLVTVSS
notes: Single polypeptide chain; also called A007901219 (Alb23)
Usually IC50 stands for the concentration that inhibits the measured activity by half. Lower therefore signals higher potency. Broadly, the koff is the rate constant with which the complex falls apart. A higher koff goes with fast dissociation. By kon is commonly meant a measure of how fast the partners come together. A low value points to slow association. Regarding B2, in [5], the “fold improved potency vs 5D5 Fab v2, HGF-dependent c-MET phosphorylation in A549 cells” value is ~2 fold. Also, the “fold improved potency vs 5D5 Fab v2” value in experiment [6] is > 5 fold. Also, in experiment [7], the “IC50, HGF-dependent c-MET phosphorylation in A549 cells (MSD), +HSA” value stood at 4.2 nM and the “IC50, HGF-dependent c-MET phosphorylation in A549 cells (MSD), -HSA” value was 5.41 nM. This molecule also showed an IC50 in experiment [8] of 0.066 nM. In [9], this molecule registered a Kd of 300 nM, an off-rate (koff) of 0.05 s⁻¹ and a kon of 170000 M⁻¹ s⁻¹. In [3], the Kd was 27 nM, the off-rate (koff) is 0.0032 s⁻¹ and the kon amounted to 120000 M⁻¹ s⁻¹. Moreover, in experiment [4], binding was put at a Kd of 24 nM, the off-rate constant (koff) was 0.0033 s⁻¹ and the on-rate constant (kon) turned out to be 130000 M⁻¹ s⁻¹.
